# Experimental data published in article doi:10.1101/2022.04.03.486873 (bioRxiv, 2022).
# Changes are numbered by the printed parent chain. Names and notes keep the numbering of the source.
# T1: UPF2L (120-1227) (UniProt Q9HAU5 120-1227)
# T1 sequence: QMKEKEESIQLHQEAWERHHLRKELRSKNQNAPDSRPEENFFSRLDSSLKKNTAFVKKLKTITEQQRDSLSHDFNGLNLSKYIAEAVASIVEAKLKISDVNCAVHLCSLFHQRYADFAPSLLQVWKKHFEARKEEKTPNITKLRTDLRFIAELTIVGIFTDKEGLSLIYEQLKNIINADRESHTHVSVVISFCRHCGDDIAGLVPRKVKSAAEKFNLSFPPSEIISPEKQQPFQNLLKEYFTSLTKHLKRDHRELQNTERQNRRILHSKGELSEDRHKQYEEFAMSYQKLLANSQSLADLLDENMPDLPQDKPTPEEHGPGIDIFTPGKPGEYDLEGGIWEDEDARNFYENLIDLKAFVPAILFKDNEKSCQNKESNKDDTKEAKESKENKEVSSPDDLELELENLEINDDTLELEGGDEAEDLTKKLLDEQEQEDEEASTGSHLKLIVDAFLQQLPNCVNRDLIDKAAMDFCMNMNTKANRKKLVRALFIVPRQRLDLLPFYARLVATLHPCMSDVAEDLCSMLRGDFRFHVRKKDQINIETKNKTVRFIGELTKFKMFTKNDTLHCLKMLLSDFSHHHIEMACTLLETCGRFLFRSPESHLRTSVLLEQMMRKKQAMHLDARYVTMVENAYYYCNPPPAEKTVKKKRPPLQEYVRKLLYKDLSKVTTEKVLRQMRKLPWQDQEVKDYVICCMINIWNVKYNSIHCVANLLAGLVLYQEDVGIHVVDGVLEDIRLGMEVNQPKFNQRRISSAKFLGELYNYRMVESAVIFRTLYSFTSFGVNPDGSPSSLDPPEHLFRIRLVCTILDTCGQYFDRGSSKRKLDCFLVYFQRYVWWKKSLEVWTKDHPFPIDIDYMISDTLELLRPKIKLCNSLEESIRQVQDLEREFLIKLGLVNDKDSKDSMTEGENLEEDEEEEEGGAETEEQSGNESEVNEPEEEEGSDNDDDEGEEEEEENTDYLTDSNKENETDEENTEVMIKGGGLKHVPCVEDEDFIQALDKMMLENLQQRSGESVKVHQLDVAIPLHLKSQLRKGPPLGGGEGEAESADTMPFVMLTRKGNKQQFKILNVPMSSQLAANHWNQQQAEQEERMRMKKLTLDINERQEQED
# B1: UPF3B-41-143 (domain or fragment)
# chain: DRNKEKKEALSKVVIRRLPPTLTKEQLQEHLQPMPEHDYFEFFSNDTSLYPHMYARAYINFKNQEDIILFRDRFDGYVFLDNKGQEYPAIVEFAPFQKAAKKK
# B2: UPF3B-FL (residues 1-470) (natural protein)
# chain: MKEEKEHRPKEKRVTLLTPAGATGSGGGTSGDSSKGEDKQDRNKEKKEALSKVVIRRLPPTLTKEQLQEHLQPMPEHDYFEFFSNDTSLYPHMYARAYINFKNQEDIILFRDRFDGYVFLDNKGQEYPAIVEFAPFQKAAKKKTKKRDTKVGTIDDDPEYRKFLESYATDNEKMTSTPETLLEEIEAKNRELIAKKTTPLLSFLKNKQRMREEKREERRRREIERKRQREEERRKWKEEEKRKRKDIEKLKKIDRIPERDKLKDEPKIKLLKKPEKGDEKELDKREKAKKLDKENLSDERASGQSCTLPKRSDSELKDEKPKRPEDESGRDYREREREYERDQERILRERERLKRQEEERRRQKERYEKEKTFKRKEEEMKKEKDTLRDKGKKAESTESIGSSEKTEKKEEVVKRDRIRNKDRPAMQLYQPGARSRNRLCPPDDSTKSGDSAAERKQESGISHRKEGGEE
# B3: UPF3B-41-189 (domain or fragment)
# chain: DRNKEKKEALSKVVIRRLPPTLTKEQLQEHLQPMPEHDYFEFFSNDTSLYPHMYARAYINFKNQEDIILFRDRFDGYVFLDNKGQEYPAIVEFAPFQKAAKKKTKKRDTKVGTIDDDPEYRKFLESYATDNEKMTSTPETLLEEIEAKN
# B4: UPF3B-41-189 Y160A (domain or fragment)
# chain: B3 chain with Y120A
# B5: UPF3B-41-189 Y160D+Y167D (domain or fragment)
# chain: B3 chain with Y120D, Y127D
# B6: UPF3B-41-189 F163A (domain or fragment)
# chain: B3 chain with F123A
# B7: UPF3B-41-189 Y167A (domain or fragment)
# chain: B3 chain with Y127A
# B8: UPF3B-41-189 Y167D (domain or fragment)
# chain: B3 chain with Y127D
# B9: UPF3B-41-189 Y160A+Y167A (domain or fragment)
# chain: B3 chain with Y120A, Y127A
# B10: UPF3B-41-189 Y160D (domain or fragment)
# chain: B3 chain with Y120D
# B11: UPF3A-58-206-Iso1 (domain or fragment)
# chain: KPREEKRTALSKVVIRRLPPGLTKEQLEEQLRPLPAHDYFEFFAADLSLYPHLYSRAYINFRNPDDILLFRDRFDGYIFLDSKGLEYPAVVEFAPFQKIAKKKLRKKDAKTGSIEDDPEYKKFLETYCVEEEKTSANPETLLGEMEAKT
# B12: Avi-UPF2-MIF4GIII (biotinylated) (domain or fragment)
# chain: EKTVKKKRPPLQEYVRKLLYKDLSKVTTEKVLRQMRKLPWQDQEVKDYVICCMINIWNVKYNSIHCVANLLAGLVLYQEDVGIHVVDGVLEDIRLGMEVNQPKFNQRRISSAKFLGELYNYRMVESAVIFRTLYSFTSFGVNPDGSPSSLDPPEHLFRIRLVCTILDTCGQYFDRGSSKRKLDCFLVYFQRYVWWKKSLEVWTKDHPFPIDIDYMISDTLELLRPKIKLCNSLEESIRQVQDLEREFLIKLGLVNDKDSKDSMTEGENLEEDEEEEEGGAETEEQSGNESEVNE
# modifications: biotin on the Avi tag (BirA)
# Experiments:
# [1] = biological target: Avi-UPF2-MIF4GIII (biotinylated) (UniProt Q9HAU5); experiment: SPR
# [2] = biological target: B12; experiment: SPR
# UPF2L (120-1227) = biological target: T1, UPF2L (120-1227); experiment: native gel or EMSA
# [3] = biological target: B2; experiment: SPR
Molecule,Kd [2],also measured
full-length UPF3A-WT (from UniProt Q9H1J1 1-476) (natural protein),–,Kd [1]: 0.048 nM
B1,720 nM,–
B2,–,binding result (UPF2L (120-1227)): binds
B3,3.6 nM,–
B4,88 nM,–
B5,~130 nM,–
B6,90 nM,–
B7,3.3 nM,–
B8,7.4 nM,–
B9,~130 nM,–
B10,140 nM,–
B11,0.22 nM,–
B12,–,Kd [3]: 0.47 nM
